Source: patent US20210002644, “ANTI-CHYMASE APTAMER AND USE FOR SAME” (RIBOMIC INC., published 2021)

Columns and labels:
[1] = target: T1, chymase (recombinant, SIGMA) (UniProt P23946); test: inhibition; conditions: 2'-F pyrimidines (U, C); negative control pool, no inhibition
T1 sequence: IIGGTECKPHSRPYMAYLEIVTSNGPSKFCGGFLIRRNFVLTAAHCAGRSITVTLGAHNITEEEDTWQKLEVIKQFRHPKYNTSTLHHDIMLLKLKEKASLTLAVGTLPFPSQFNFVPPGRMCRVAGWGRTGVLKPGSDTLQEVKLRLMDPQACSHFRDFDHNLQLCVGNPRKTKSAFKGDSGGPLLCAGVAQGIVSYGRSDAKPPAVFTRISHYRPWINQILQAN

[2] = target: T2, chymase (recombinant, SIGMA) (UniProt P23946 P23946:22-247); test: inhibition; Suc-AAPF-MCA substrate, 0.005 ug chymase, single measurement; conditions: tags: SIGMA recombinant
T2 sequence: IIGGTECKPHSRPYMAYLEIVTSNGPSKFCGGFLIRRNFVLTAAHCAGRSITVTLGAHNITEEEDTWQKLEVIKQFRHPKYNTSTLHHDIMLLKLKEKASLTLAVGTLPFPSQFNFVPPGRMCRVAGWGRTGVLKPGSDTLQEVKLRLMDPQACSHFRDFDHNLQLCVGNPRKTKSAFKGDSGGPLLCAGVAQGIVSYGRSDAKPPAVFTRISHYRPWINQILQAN
Experimental: (§1) The assay was performed using a 96-well plate (F16 Black Maxisorp Fluoronunc, manufactured by Nunc), with a reaction mixture volume of 100 μL, in solution C as a buffer solution. Here, the solution C is a mixed solution of 145 mM sodium chloride, 5.4 mM potassium chloride, 1.8 mM calcium chloride, 0.8 mM magnesium chloride, 20 mM Tris (pH 7.6), and 0.05% Tween20. First, nucleic acid was serially diluted in solution C to obtain 50 μL solutions. After 10 μL of the 1 mM substrate prepared in solution C was added thereto, the plate was set to the microplate reader SpectraMax190 (manufactured by Molecular Devices Corporation), and incubated at 37° C. for 5 minutes. Separately, 0.05 μg of chymase (recombinant, manufactured by SIGMA) was diluted in solution C to obtain a 40 μL chymase solution, and incubated at 37° C. for 5 minutes. The chymase solution was added to the mixture of the nucleic acid and substrate to initiate an enzyme reaction. The final chymase concentration in the reaction mixture was 16.7 nM, the final substrate concentration being 100 μM. The plate containing the reaction mixture was set to the microplate reader SpectraMax190 (manufactured by Molecular Devices Corporation), and examined for time-dependent changes in the fluorescence intensity at 37° C. for 5 minutes (or 30 minutes) (excitation wavelength 380 nm, detection wavelength 460 nm). A linear approximation of the increase in the fluorescence of the AMC released from the substrate by chymase activity was generated, and its slope was taken as the initial velocity […]. For control, samples were treated and analyzed in the same manner in two cases: use of a 30N (a nucleotide of 30 consecutive bases represented by N; N is A, G, C or T) nucleic acid pool (negative control), and use of chymostatin, a known chymotrypsin-like serine protease inhibitor (positive control). Taking the initial reaction velocity without the nucleic acid and inhibitor (V₀) as a 100% enzyme activity, the inhibitory rate of each test substance was calculated using the following equation: […]
In the evaluation of SEQ ID NO: 21-25, a method similar to the evaluation method of inhibitory activity against chymase shown in Example 1 by using MCA as a substrate except that the amount chymase was changed from 0.05 μg to 0.005 μg was used for measurement.

[3] = target: T2, chymase (recombinant, SIGMA); test: inhibition; Suc-AAPF-MCA substrate, 37 C; conditions: tags: SIGMA recombinant
Experimental: as §1, with “By detecting the fluorescence of this AMC, the enzyme activity of chymase can be determined. The assay” for “The assay”

[4] = target: T3, chymase (native, human skin mast cell) (Homo sapiens, UniProt P23946 P23946:22-247); test: inhibition; angiotensin I substrate, 37 C; conditions: tags: Calbiochem Human Skin
T3 sequence: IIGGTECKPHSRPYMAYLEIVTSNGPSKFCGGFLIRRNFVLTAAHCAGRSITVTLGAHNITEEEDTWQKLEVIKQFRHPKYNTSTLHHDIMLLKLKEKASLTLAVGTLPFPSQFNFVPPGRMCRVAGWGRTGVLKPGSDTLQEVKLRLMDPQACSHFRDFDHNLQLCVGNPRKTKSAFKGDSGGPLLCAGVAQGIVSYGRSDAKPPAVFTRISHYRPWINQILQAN
Experimental: Whether the nucleic acids shown by SEQ ID NO: 9 and 10 inhibit the enzyme activity of chymase was determined by the following method. Angiotensin I is converted by chymase to angiotensin II, during which a peptide fragment His-Leu is released. Since the peptide His-Leu is fluorescently derivatized by o-phthalaldehyde, its fluorescence intensity can be quantitatively measured.
The total volume of solution for an enzyme reaction in the assay was set to 50 μL, and the reaction was performed in solution C buffer. At first, native (manufactured by Calbiochem) was diluted with solution C to give 5 μL thereof. Here, the native is chymase purified from human skin mast cell. […] The whole mixture was centrifuged at 4° C., 14000 rpm for 10 min, and the supernatant (30 μL) was used for the next fluorescence induction reaction.
The above-mentioned supernatant (30 μL) was added to a 96 well plate (black, manufactured by Costar), a solution (15 μL) of 2% o-phthalaldehyde (manufactured by SIGMA) in methanol and 0.3M NaOH solution (170 μL) were added to each well, and the mixture was incubated at room temperature for 10 min. […] The plate was set on a microplate reader SpectraMax190 (manufactured by Molecular device) and the fluorescence intensity was measured at an excitation wavelength of 355 nm and a fluorescence wavelength of 460 nm.

## UCACACUAGCACGCAUAGGNNNNNNNNNNNNNNNNNNNNNNNNNNNNNNCAUCUGACCUCUCUCCUGCUCCC [30N nucleic acid pool]
[1]
  IC50: > 500 nM

## GGCAGAUGAUCGGACAUAACAGUAGAUAGAGUUAAAACUGGGGUGUCAA (ssRNA, 2'-F pyrimidines (inferred)) [SEQ ID NO: 23]
[2]
  IC50: 7.8 nM

## GGCAGAUGAUCGGACAUAACAUAGAUAGAGUUAAAAUGGGGUGUCAA (ssRNA, 2'-F pyrimidines (inferred)) [SEQ ID NO: 24]
[2]
  IC50: 3.7 nM

B1: SEQ ID NO: 5 (ssRNA)
RNA: GGGAGCAGGAGAGAGGUCAGAUGAUGACCGAUUAUAGGUAACCACUUAGGGGGCCUAUGCGUGCUAGUGUGA
modifications: 2'-F pyrimidines (U, C); purines 2'-OH
[3]
  IC50: 7 nM

B2: SEQ ID NO: 8 (ssRNA)
RNA: GGGAGCAGGAGAGAGGUCAGAUGAUUGACGACUAUAGGUAACCUUUACGGGGGCCUAUGCGUGCUAGUGUGA
modifications: 2'-F pyrimidines (U, C); purines 2'-OH
[3]
  IC50: 35 nM

B3: SEQ ID NO: 10 (ssRNA)
RNA: GGGAACGAAGCGACAGACCGAAUCAGAAGUUCAACAUGGACAUAACAUCGAUGGGGUGUCAAGUACUGACGACAGA
modifications: 2'-F pyrimidines (U, C); purines 2'-OH
[4]
  IC50: 0.43 nM

B4: SEQ ID NO: 7 (ssRNA)
RNA: GGGAGCAGGAGAGAGGUCAGAUGUUUGGUAGUAACUGGAAUAGGGGCUACAGGCCUAUGCGUGCUAGUGUGA
modifications: 2'-F pyrimidines (U, C); purines 2'-OH
[3]
  IC50: 52 nM

B5: SEQ ID NO: 3 (ssRNA)
RNA: GGGAGCAGGAGAGAGGUCAGAUGAUAACCAGUUGGGGGGUCAAUUACAUGGGACCUAUGCGUGCUAGUGUGA
modifications: 2'-F pyrimidines (U, C); purines 2'-OH
[3]
  IC50: 26 nM

## GGCAGAUGAUCGGACAUAACAAGAUAGAGUUAAAUGGGGUGUCAA (ssRNA, 2'-F pyrimidines (inferred)) [SEQ ID NO: 25]
[2]
  IC50: 5.8 nM
